Data on 68 sequences can be found in the domain aggregation screens of Martell et al. (2025).

This series can be described thus: soluble fraction after stress (log2 fold change); higher = more stays soluble; pooled small domains, quantitative proteomics. The note with it: stress: 50 degC. The gist of the method: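 After stress at 50°C, the amount of each protein still soluble was measured. This was done on pooled custom libraries of small protein domains, using high-throughput quantitative proteomics. The figure given is a base-two log fold change and stands for aggregation propensity, with higher values meaning more protein stays in solution.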
Turning to “HMNADKEALIAAAYRNSLIENFGTENVERYEERFNKWADKHDRQGMPMYPTIEKWMNEDNIA”, the “soluble fraction (log2)” value was 0.111.

Turning to “HMNADRIVGQTAKVIHPITPDEKGRVMVDNLDWAAAAQNRGESFEVGEEVSIVRIEGVTVYVQK”, the “soluble fraction (log2)” value amounted to 0.209.

As to “HMNADTVIGKAGTVIEKIDNVAATGAVKIDGKVWTARSERDNITIDEGTLVKAMAIEGVKLIVEPVT”, the “soluble fraction (log2)” value amounted to 0.198.

Regarding “HMNAEGLIGREAVALTAVDAHGGRVRLGGEEWSARLSKENGGVSRLSVGDPVRVTDIDGAIAVVAP”, the “soluble fraction (log2)” value was found to be 0.187.

For “HMNAEQLAQVRRQKIGFIFQDFRLFPEYTVRDNILIPFYLDHRAPDEQMLHKLTGILGIAGKLHSRPAQL”, the “soluble fraction (log2)” value is -0.0698.

With “HMNAKVVAPIPGTVLSIDIKVGDVIKIGDRLLVLEAMKMENNIASEKSGTVTAVHVKVGQQVLQNELMIEL”, the “soluble fraction (log2)” value was -1.39.

For “HMNALNDLESKIFEEVVKAPEIIMNMTIREFASTVHASPTTIVRMTHKLGFSGWNELKTYLQKQKHQIS”, the “soluble fraction (log2)” value is -1.02.

With “HMNALREVNTSILNVRSGAGTNYSKIGSLTQATRVSVISESNGWSKINYNGKVGYVSSQYLS”, the “soluble fraction (log2)” value is -0.502.

For the sequence “HMNAMKPVLTVSLGVHTDSLSRRLNEEGIIYRWQQAASEQLLLVDSESSSERIAELIHDWRLEQSSS”, the “soluble fraction (log2)” value is -0.0169.

Consider “HMNANTILNSQRILTQLGFNPGPIDGAFGAKTKGALNAFYTSIGKSYDGLLDSNELVELQKALDVSGLKN”, for which the “soluble fraction (log2)” value is -0.295.

As to “HMNDADAHASVDAALKHLEALAETTPEVRAALELVRRGPDGRVTVDSFARVAEALREISIAVGAS”, the “soluble fraction (log2)” value stood at 0.107.

On to “HMNDELMEQIDEWHKAEKHQEIIDALEQIPEAERDFETTGFLARAYNNIEEYAKAADLLESVRE”, for which the “soluble fraction (log2)” value turned out to be 0.0873.

For the sequence “HMNDGEIAAPVSGTLQSFKVEDGQTVSEGDLVAVMEAMKMETQILATKGGTIRLLVKEGDYLQAGHALMTI”, the “soluble fraction (log2)” value is -0.525.

For “HMNDGTIRVGTNVTIKPSAKRWATGQNIYYGVKGKTYKVIQMNGNRLLLDKVISWINKGDVYVPGS”, the “soluble fraction (log2)” value was -0.501.

On to “HMNDIDRFIEALIEQDTLPGTNSRINEDVISEMKMMTSVEDIKAYAIATVGLTGGQVNNALINSGL”, for which the “soluble fraction (log2)” value is -0.0823.

“HMNDIVKIYTTHRIINIEGLAKNEPIMLYTINGTLIDKSVSSNGSAQLHVKGIGVYLVKWANNIVKVIVPN”: the “soluble fraction (log2)” value was -2.42.

Turning to “HMNDLDSLWDIWENLNERGIGDKSEEGQELRDAIREFIDTNELNVRVTRNKTNEDLLTDIEDALEVAKNS”, the “soluble fraction (log2)” value was -0.33.

Regarding “HMNDLIFSTLAEYDRDTITEIISVVDNTRGIGYEVELVRKDLIAMAAQAEARRDYLPSVIGDVEVFKRNLL”, the “soluble fraction (log2)” value turned out to be 0.0286.

As to “HMNDNQNKQMLWELLKDNRAFDNFDNKDYKTIIHLFNETVNTIDHRTPNLDLIKKNKIFIQDIMQKLSNL”, the “soluble fraction (log2)” value was -1.13.

As to “HMNDSGIIGVVINDHEKYEGHVLEDGFISSSLSALSREIDVAGYFMMVKTVVYEGFFQELKGIGNV”, the “soluble fraction (log2)” value is -0.00726.

As to “HMNDTNEEAVLSIILKNPQATQGAIAKEVGASLSTVKRIMRNLQKSGKLRREGTNRNGSWVVTGQK”, the “soluble fraction (log2)” value was 0.0846.

For “HMNDTPPELRAALDLLGLKWPLASVELRARYKDLAKQHHPDATGGDKQAEERLKDINRAYSLLKHRLAKQ”, the “soluble fraction (log2)” value was -0.07.

For the sequence “HMNDTVGMNIRRLRKERGMTQGDLADKAGIQRETISKYESNKLTPPSYNLESIEKALKVPAGTLAQ”, the “soluble fraction (log2)” value was found to be 0.0652.

Consider “HMNDYIGVDRAKEIALNHARMNESDVQFAKAKLENDDGVVEYEIEFYFGRTEYDYTIDAVSGNIIEYDVEY”, for which the “soluble fraction (log2)” value was -1.05.

Take “HMNEDDQLLKVLLAEPLRLEELYNLDLKPQGPYNLQTWIMVHLTELERDGLIARFPDGRYGPAR”: the “soluble fraction (log2)” value was -1.36.

For “HMNEFAYLIKISPEHNNNRYYRMVAEGDNFRIEMGRIGASPVQMKRPMYLWNETYQKKLQEGYTDRTSYTS”, the “soluble fraction (log2)” value was -1.92.

Turning to “HMNEIDLEAAKRIALQNAGVESADAAFTKAQLDYDDGVAEYEIEFVAGSTKYEYEISAANGTVLKSSKESV”, the “soluble fraction (log2)” value is -0.0497.

For “HMNEIEIHINKLFGKISDSKRKQELMQEITQNLNEKVSDLVSQGQTREQAVKKAIEDFGDIDDLKDELDN”, the “soluble fraction (log2)” value worked out at 0.275.

As for “HMNEIYHQIKVDNVSDDDISLFQYSGIEFDHADYRRGEYIEFAISNRDLSILNNLGYEYQVVHH”, the “soluble fraction (log2)” value was -0.757.

Take “HMNEKAALIFNEWSDFVSKDDEANAQIKFDELITLYKKTGYTKIALLEVATKQASNGDIEGALAKYSLLID”: the “soluble fraction (log2)” value stood at 0.208.

For the sequence “HMNEKTGTLTVYSSPGWAKVYIDGEYKGITPVMANLTYGDHYVKLTLDGYDSIGNHIDVNSPDQSYTGKF”, the “soluble fraction (log2)” value is -0.494.

For the sequence “HMNELIGVEQLQDLREAIADHGFAEQRVLNWLYQATKGQVSRLEQLPLPMLTTLHKKLGQWADAEAAASSA”, the “soluble fraction (log2)” value was -0.0602.

With “HMNELVEATITTQTGRLDKVLTTIFPQYSRSQIQQLLEQGNILVNETLQKGKYKVKAGDKISLTEPAIKE”, the “soluble fraction (log2)” value was found to be 0.111.

As for “HMNEMSDTITRLLDAAETGIRLRGYHAVSFRDLAEELGIKSSSVHYYFRQKEDLGLAVVERY”, the “soluble fraction (log2)” value is 0.0289.

Regarding “HMNENDPRVIKTRRLLLDSFVVLVRKKDFTSISVKDITDSAQVNRATFYAHFQDKYDILEYMVID”, the “soluble fraction (log2)” value worked out at 0.112.

As for “HMNENNFIVAMRERLAQFIETSGTSQSRIAKELGVSKSTVSLFLGGTYGGNNQELARNLEQLLSMGAARR”, the “soluble fraction (log2)” value is -0.96.

For the sequence “HMNEPMITEVKRINYGSIKEIAKNLDVFKGKNGTVIIDERTNTLILTDLSENIEKMLWSIEITD”, the “soluble fraction (log2)” value is -0.896.

In the case of “HMNERTKIPLRKIEIGQAVYVDTLEKVGTVIDIQGKQFKVDLAGLPITVAARNLFYPLPQEAKP”, the “soluble fraction (log2)” value is -0.106.

As for “HMNESADMPDVVNMSLEAAKSQLEGMGLKVKVENVEDDSVEENHVIKTSPVSGEKVKLGTTVTLTVSKGR”, the “soluble fraction (log2)” value was -0.0231.

In the case of “HMNESEALIARIENLPPIEDLTEKHAEEVKALMTVYSKLKMSDRILVTNYGVLKKDFDALVKKGFLTNED”, the “soluble fraction (log2)” value was 0.0784.

For the sequence “HMNETHANKVYNFLKKKKKPLSAYEILKELASEGISAPTTIYRALNKLVSNGLIHKIESLNAWTV”, the “soluble fraction (log2)” value is 0.318.

In the case of “HMNETLKQIRINALQYSEKDMATKLGLPLSEYKEIENDKPLNFTLLIRLSQAVGKTIDDLLNAQ”, the “soluble fraction (log2)” value stood at 0.0115.

In the case of “HMNEVETWSVQADGATGRIDKWLAEQNEWSRSQVQEWLKAGRVEVDGRVVKPNYKLSGTESIAVHIPEAV”, the “soluble fraction (log2)” value is -0.0928.

With “HMNEWVSVEERLPTDERPVLAFIGYADTMNGFITTSYYFRFDPDPHWLGEGLIPVGLKTLFWMPLPAP”, the “soluble fraction (log2)” value was -0.0149.

For “HMNEYSLVPDIYGMTYDDALSSLRNVGLDGRLALASTNEDLANADTRVVWQSKEAGSIIDKGSNVMFVID”, the “soluble fraction (log2)” value worked out at 0.0609.

“HMNFAERIKELRKEKGITQIDLAEAVGLSKGTVAMWEVDKREANFDTLNKLSDYFQVSIDYLLGRSNDRS”: the “soluble fraction (log2)” value is 0.0272.

As to “HMNFDVETGLPLDSRLVVSGLIQRDGINSLKRYEGMIVYVESEAKNYQLVGGISNTDWAELS”, the “soluble fraction (log2)” value was -0.916.

As for “HMNFGEVLQTKRKSMGLTQEDLADKLFVSSETISNWETNKTTPDIDNVIRISQLFDISLNNLLL”, the “soluble fraction (log2)” value is -0.0758.

Regarding “HMNFIPGEKINLKIVQEGKEKNQGVGYLSDGTMVIVENGSQKLGQDVEVVVIKNIQSSAGKIVFGDISK”, the “soluble fraction (log2)” value is 0.0978.

For the sequence “HMNFSRQREIIYEQVRNFPVHPTAEEVYRALKNDNPNLSLGTVYRNLNQLSEAGMLLKIPIADGSDRFDGR”, the “soluble fraction (log2)” value was -0.492.

As for “HMNFTETENRIYEEILKNVKQHKKKTVVQIAEKVDVAPSYVIKVAKKLGYSGLNEMWYSLSGIY”, the “soluble fraction (log2)” value was -0.54.

“HMNFTMERLYTKELTSEDIDEIKKELNSMGYTEGVEFNIIKGDKTSFIMAERQLKAKMLSHLSDLGLPRGA”: the “soluble fraction (log2)” value is -0.152.

As to “HMNGAAAEQARKQLMTALKASEFIAQDKLDEWLDALALPQEKRSAIIDAVDELDYEEAISELEN”, the “soluble fraction (log2)” value was -0.0176.

As to “HMNGDWISARQEYYIRGLWDLASRAKDEASLQAMLQRIAGVTQIEWISKEKATKVILALRDIAKK”, the “soluble fraction (log2)” value is -1.68.

As for “HMNGELSQRQWQILRLIAQGLSNEQMARQLFVAPSTIKTHINHLYAKLGVRTRAEAQAIARQKLMA”, the “soluble fraction (log2)” value is -0.619.

“HMNGIFEYSDAKKVPSLVEIENAYRRARVNGAEKFAVIINGEYFGYNPQKRGIYKLNDGEYQIL”: the “soluble fraction (log2)” value is -0.0706.

For the sequence “HMNGKPDMTPIPAGSRNNDLHAWAYGRLLNHPDNAEAIRRDLFERGQTSGLKESELETIWQSIRRQLGGD”, the “soluble fraction (log2)” value was found to be 0.249.

As to “HMNGKTIEVPDITEKSIAEAQLILNQKKLRYNVVDSTRFDPAYLPFSVLTQEPEAGDEVKKNRTIYITLNP”, the “soluble fraction (log2)” value was -0.0871.

“HMNGLDSVLRNWARQTLASGGENLLGDLTDHVTRLIISEALIMTGGNRTRAAELLGLSRPTLLAKMDKLNL”: the “soluble fraction (log2)” value is -1.45.

“HMNGPTPEEKLAVVNAEFVRQYGDEYEELELEGEELEEYYQKALNKEDFEYDIPHLPGWDEP”: the “soluble fraction (log2)” value is 0.0217.

“HMNHHEIIMKNIDTLLKEKNISISKLEKSLGISNGYISRLRNGKYNFSLDLLLKLAKKFKISIDYLLTDFD”: the “soluble fraction (log2)” value came to 0.00249.

Take “HMNHNPSIARKISREIKRGAPPESLLNLARTVNDSYYRSLSFVSIAYSIKGKKSKELFEEAISNLT”: the “soluble fraction (log2)” value was -0.161.

For “HMNHTIEENDRVLILDPRGKKYLITVTNRVFHTNLGKLDISELIGKNYGDKIKSHMGKNFSILKPNLIDYI”, the “soluble fraction (log2)” value was -0.0858.

With “HMNIAEIGQKVAQQRVALGISQERLAKLSDLSRSTIHHLEHGTLHEIGAAKLFKLLSLLDIQLK”, the “soluble fraction (log2)” value is -0.761.

“HMNIDQAFISDLERMIMPDISKYELMDIISIMENSGFTIKVEGTGNEVRQVIKPGSKLKKGQKIKIKL”: the “soluble fraction (log2)” value was -1.83.

As for “HMNIEIIEVQEESTPSEISKIISTESTKIIEDLLNLGVMASLETPLKNQDIEKLLEGYGYIVDIKP”, the “soluble fraction (log2)” value was -0.372.

Turning to “HMNIGEKIKKIRTQQNKSTYELADIINKNGFKISQSAISKIENGRKKIDIETLEEIAKALDIEVDLLIT”, the “soluble fraction (log2)” value is -0.14.

Take “HMNIGIVSLAAVPMRKEPSDRAEMVNQILFGETFDVLEEQEKWTLVQLHHDAYQGWIDRKQWDYASGIAD”: the “soluble fraction (log2)” value was -1.01.
